The record followed here is PMC8951703.

In one assay the target is fibronectin (UniProt P02751). Description: SPR; plasminogen or fibronectin immobilised on CM5 chips by amine coupling (600 RU); recombinant enolase proteins 0-4000 nM injected at 30 uL/min for 180 s, 20 °C, dissociation 1000 s; 10 mM HEPES, 150 mM NaCl, 3 mM EDTA, 0.05% surfactant P20; Biacore X100.
Another assay addresses plasminogen. The assay is described as above.
Assay [1] has as its target Recombinant M. hyorhinis enolase K451L (Mycoplasma hyorhinis (strain HUB-1)) (UniProt P0DXB0).
The target in assay [2] is Recombinant M. hyorhinis enolase K451L-K452L (Mycoplasma hyorhinis (strain HUB-1)) (UniProt P0DXB0).
Assay [3] addresses Recombinant M. hyorhinis enolase K452L (Mycoplasma hyorhinis (strain HUB-1)) (UniProt P0DXB0).

Chain of fibronectin (P02751 32-2477): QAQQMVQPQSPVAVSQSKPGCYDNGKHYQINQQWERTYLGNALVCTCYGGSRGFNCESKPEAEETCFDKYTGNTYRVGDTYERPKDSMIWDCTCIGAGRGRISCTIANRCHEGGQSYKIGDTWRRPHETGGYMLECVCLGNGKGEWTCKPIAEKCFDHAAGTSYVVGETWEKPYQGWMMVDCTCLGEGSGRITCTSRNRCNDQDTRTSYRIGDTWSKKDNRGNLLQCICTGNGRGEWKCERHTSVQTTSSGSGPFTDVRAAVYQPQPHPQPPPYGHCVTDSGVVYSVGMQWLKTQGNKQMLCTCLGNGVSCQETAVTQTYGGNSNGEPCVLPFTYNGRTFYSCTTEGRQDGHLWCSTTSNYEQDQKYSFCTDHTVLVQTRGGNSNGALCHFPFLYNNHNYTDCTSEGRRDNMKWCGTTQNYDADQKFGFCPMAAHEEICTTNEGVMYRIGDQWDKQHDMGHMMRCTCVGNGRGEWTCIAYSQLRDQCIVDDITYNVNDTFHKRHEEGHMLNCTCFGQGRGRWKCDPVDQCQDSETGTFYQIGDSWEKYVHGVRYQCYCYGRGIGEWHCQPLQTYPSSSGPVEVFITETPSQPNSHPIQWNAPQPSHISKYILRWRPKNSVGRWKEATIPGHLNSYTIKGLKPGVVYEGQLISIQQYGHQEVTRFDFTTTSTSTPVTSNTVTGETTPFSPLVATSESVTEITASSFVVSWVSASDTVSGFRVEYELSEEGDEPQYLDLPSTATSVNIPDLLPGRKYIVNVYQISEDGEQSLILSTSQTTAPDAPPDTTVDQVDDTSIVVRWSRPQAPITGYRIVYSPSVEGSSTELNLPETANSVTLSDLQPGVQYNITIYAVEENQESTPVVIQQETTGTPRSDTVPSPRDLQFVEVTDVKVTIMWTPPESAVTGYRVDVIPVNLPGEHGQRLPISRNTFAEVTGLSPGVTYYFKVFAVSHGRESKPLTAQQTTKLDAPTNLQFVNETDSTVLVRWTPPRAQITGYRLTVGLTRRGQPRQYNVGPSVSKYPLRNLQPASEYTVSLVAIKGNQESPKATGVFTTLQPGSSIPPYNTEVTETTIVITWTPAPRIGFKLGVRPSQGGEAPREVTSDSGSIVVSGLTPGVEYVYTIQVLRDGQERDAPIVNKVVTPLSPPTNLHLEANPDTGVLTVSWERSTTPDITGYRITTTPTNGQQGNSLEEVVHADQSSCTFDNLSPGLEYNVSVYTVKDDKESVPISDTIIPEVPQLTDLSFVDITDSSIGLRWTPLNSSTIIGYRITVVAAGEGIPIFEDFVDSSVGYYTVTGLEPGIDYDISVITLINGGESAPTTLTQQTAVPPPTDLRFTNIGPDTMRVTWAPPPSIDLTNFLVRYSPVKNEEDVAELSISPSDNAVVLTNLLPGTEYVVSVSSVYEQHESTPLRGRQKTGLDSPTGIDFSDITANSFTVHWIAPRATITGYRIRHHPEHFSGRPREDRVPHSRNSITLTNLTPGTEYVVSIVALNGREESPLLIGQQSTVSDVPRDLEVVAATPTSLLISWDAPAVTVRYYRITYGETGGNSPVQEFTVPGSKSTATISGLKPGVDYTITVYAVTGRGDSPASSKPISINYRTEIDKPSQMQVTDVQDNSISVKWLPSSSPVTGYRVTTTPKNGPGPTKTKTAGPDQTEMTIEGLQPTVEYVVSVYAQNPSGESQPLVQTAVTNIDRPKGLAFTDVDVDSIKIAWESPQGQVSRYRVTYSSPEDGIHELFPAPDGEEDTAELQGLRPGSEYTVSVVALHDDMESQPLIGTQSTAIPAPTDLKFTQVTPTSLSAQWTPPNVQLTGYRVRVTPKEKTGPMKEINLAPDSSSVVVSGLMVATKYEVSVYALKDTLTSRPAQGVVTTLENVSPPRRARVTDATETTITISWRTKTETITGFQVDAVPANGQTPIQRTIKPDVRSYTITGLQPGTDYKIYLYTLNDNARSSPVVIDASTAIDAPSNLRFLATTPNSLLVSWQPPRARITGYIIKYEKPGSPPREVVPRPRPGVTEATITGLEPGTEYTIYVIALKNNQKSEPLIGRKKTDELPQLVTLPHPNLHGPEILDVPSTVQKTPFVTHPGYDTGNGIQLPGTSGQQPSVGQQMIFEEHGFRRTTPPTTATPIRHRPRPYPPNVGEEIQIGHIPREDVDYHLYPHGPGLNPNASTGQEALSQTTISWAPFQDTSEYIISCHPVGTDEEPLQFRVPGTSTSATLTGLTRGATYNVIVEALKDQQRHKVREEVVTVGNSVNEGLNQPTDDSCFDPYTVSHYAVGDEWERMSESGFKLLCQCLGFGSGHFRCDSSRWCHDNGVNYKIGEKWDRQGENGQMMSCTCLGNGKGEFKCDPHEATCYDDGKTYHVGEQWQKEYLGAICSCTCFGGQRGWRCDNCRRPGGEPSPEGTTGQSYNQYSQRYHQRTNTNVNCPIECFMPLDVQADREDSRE

As usually defined, the Kd is the constant that tells how readily two partners part at equilibrium. As to “Recombinant M. hyorhinis enolase K451L-K452L (from UniProt P0DXB0 1-450) (enzyme)”, the dissociation constant (Kd) came to 75.2 nM with fibronectin and 59.4 nM with plasminogen.
Regarding “Recombinant M. hyorhinis enolase, wild-type (from UniProt P0DXB0 1-450) (enzyme; other documents disagree on this pair)”, the Kd in the assay with fibronectin was found to be 14.3 nM.
Take plasminogen (natural protein): the plasmin activity (OD 405 nm) of plasminogen held in wells coated with the mutant, after tPA, compared with WT rEno-bound plasminogen (printed percent, seemingly the decrease) turned out to be 39.5% in assay [1], 50.1% in assay [2] and 30.5% in assay [3].
Turning to “Recombinant M. hyorhinis enolase K452L (from UniProt P0DXB0 1-450) (enzyme)”, the Kd with fibronectin came out at 70.5 nM; with plasminogen it was 15.8 nM.
Consider “Recombinant M. hyorhinis enolase K451L (from UniProt P0DXB0 1-450) (enzyme)”, for which the figures for the dissociation constant Kd with fibronectin and with plasminogen were 77.9 nM and 28 nM, respectively.
